Source: PMC3994145

Legend:
[1] = target: human FcγRIIIa/158V on Jurkat cells (human)
[2] = target: human FcγRIIa/131H on Jurkat cells (human) (UniProt P12318)
Sequence of UniProt P12318 (P12318 34-317): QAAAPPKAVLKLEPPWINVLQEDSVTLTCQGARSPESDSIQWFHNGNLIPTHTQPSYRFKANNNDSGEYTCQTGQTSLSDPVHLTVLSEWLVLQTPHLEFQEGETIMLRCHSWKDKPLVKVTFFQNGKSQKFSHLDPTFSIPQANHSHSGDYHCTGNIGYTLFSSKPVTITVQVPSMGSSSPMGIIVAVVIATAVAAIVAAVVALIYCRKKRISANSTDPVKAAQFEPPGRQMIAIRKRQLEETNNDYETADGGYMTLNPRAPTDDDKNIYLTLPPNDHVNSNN

Sequence of human FcγRIIIa/158V on Jurkat cells (human) (P08637 17-208): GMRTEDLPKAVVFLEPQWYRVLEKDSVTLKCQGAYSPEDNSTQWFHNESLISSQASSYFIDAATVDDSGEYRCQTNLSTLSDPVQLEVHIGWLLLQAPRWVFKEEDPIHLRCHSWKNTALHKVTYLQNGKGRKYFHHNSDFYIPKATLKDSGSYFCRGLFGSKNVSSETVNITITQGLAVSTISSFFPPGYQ

Row | Substance | EC50 of luciferase activity of Jurkat/FcγRIIIa/NFAT-Luc cells co-cultured with Daudi cells and serially diluted mAb [1] [µg/mL] | EC50 of luciferase activity of Jurkat/FcγRIIa/NFAT-Luc cells co-cultured with Daudi cells and serially diluted mAb [2] [µg/mL]
1 | rituximab (wild-type, anti-CD20 mAb, IgG1) (antibody) | 0.034 | –
2 | rituximab G236A/S239D/I332E variant (antibody) | 0.016 | 0.057
